For assay [1], the target named is Band 3 antigen on mouse erythrocytes (mouse) (UniProt P04919). The assay is described as follows: flow cytometry on mouse RBCs (++++ = MFI > 500). (In flow cytometry, cells or beads pass a laser one at a time.)
The target in assay [2] is Mouse CD24 (Heat Stable Antigen, Ly-52, Nectadrin) on mouse erythrocytes (mouse) (UniProt P24807). Nature of the assay: flow cytometry histogram on C57BL/6 mouse erythrocytes, PE-anti rat Ig; antibody quantity of this sample not given; RBC alone 2.80 [continued) I].
Assay [3] shares this target. The assay is described as follows: flow cytometry on mouse RBCs (++++ = MFI > 500).
Assay [4] has as its target TER-119 antigen (Ly76, 52 kD glycophorin A-associated protein) on mouse erythrocytes (mouse). Nature of the assay: flow cytometry histogram on C57BL/6 mouse erythrocytes, PE-anti rat Ig; antibody quantity of this sample not given; RBC alone 2.80 [continued) I].
For assay [5] the target is unchanged. The assay is described as follows: cell-based or functional assay.
Assay [6] has the same target. The assay is described as follows: flow cytometry on mouse RBCs (++++ = MFI > 500).
Assay [7] shares this target. The assay is described as follows: flow cytometry saturation binding on RBCs.
The target is the same in assay [8]. Nature of the assay: flow cytometry on mouse RBCs (+++ = MFI > 250).

Sequence of UniProt P24807 (P24807 27-53): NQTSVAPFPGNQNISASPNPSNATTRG
Sequence of UniProt P04919 (P04919 whole entry): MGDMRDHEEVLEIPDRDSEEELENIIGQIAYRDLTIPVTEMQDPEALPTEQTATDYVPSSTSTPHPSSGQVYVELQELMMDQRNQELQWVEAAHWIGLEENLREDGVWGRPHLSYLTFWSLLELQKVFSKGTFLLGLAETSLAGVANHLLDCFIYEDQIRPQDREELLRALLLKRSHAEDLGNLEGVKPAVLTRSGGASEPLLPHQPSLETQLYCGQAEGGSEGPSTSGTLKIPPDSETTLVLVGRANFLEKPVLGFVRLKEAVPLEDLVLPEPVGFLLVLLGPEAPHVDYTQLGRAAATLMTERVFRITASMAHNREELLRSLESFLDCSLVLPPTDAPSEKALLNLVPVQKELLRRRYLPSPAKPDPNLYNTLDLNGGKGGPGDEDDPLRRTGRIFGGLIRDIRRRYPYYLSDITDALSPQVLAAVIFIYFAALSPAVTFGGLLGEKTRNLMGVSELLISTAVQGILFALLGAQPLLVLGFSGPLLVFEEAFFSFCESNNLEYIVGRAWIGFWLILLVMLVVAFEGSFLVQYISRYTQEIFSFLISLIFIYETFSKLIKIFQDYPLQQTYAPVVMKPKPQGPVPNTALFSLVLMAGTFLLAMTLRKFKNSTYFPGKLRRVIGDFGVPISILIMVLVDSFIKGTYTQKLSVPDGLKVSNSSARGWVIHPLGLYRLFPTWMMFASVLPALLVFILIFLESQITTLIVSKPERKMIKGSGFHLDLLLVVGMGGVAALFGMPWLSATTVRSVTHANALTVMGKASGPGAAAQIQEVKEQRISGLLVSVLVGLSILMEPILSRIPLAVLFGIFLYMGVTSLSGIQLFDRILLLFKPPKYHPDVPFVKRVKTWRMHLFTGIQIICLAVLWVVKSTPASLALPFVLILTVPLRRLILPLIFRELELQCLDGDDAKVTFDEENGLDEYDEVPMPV

Turning to “34-3C (anti-Band 3 mAb, mouse IgG2a) (antibody)”, the MFI in assay [1] is greater than 500 mfi.
For “M1/69 (rat IgG2b antibody to mouse CD24)”, the Median : YLW-HLog in assay [2] stood at 113. For the same molecule, the MFI in assay [3] was greater than 500 mfi.
Consider Isotype control (antibody), for which the Median : YLW-HLog in assay [4] and in assay [2] was 2.76 in each case.

B1: TER-119 antibody (rat IgG2b monoclonal antibody to the mouse TER-119 antigen) (antibody, V domains shown)
VH: EVKLQESGGGLVQPGGSLKLSCVASGFTFRDHWMNWVRQAPGKTMEWIGDIRPDGSDTNYAPSVRNRFTISRDNARSILYLQMSNMRSDYTATYYCVRDSPTRAGLMDAWGQGTSVTVSS
VL: DIQMTQSPSVLSASVGDRVTLNCKASQNINKYLNWYQQKLGEAPKVLIYNTNNLQTGIPSRFSGSGSGTDFTLTISSLQPEDFATYFCFQHYTWPTFGGGTKLEIKR
B1: the Median : YLW-HLog in assay [4] was 112. In assay [5], this molecule registered a phagocytic index of TER-119 opsonized RBCs by RAW264.7 macrophages (lowest effective concentration) of 1.25 µg/mL and a phagocytic index of TER-119 opsonized RBCs by RAW264.7 macrophages (plateau) of 5 µg/mL. Also, the MFI in assay [6] is greater than 500 mfi. The molecule also yielded a Kd in assay [7] of 30 nM.

B2: Deglycosylated TER-119 (antibody, V domains shown)
VH: EVKLQESGGGLVQPGGSLKLSCVASGFTFRDHWMNWVRQAPGKTMEWIGDIRPDGSDTNYAPSVRNRFTISRDNARSILYLQMSNMRSDYTATYYCVRDSPTRAGLMDAWGQGTSVTVSS
VL: DIQMTQSPSVLSASVGDRVTLNCKASQNINKYLNWYQQKLGEAPKVLIYNTNNLQTGIPSRFSGSGSGTDFTLTISSLQPEDFATYFCFQHYTWPTFGGGTKLEIKR
modifications: Fc glycan removed (a variant without the Fc glycan)
Regarding B2, in assay [4], the Median : YLW-HLog is 126. This molecule returned an MFI in assay [8] of 250 to 500 mfi.

As usually defined, the Kd is a measure of binding affinity in units of concentration.
